Reference: patent publication US20160235855A1, “STABLE AQUEOUS PARENTERAL PHARMACEUTICAL COMPOSITIONS OF INSULINOTROPIC PEPTIDES” (SHANGHAI BENEMAE PHARMACEUTICAL CORPORATION, priority 2013, published 2016)
Where two headings read alike, the source gives them in different places.

Legend:
[1] = HPLC analysis of GLP-1 on C18 column (chemical stability); assay type: physicochemical
Protocol: An investigation method for chemical stability: a test sample was taken, and analyzed on a C18 column (3.5 μm, 300 Å, φ 4.6×50 mm). An analytical method: mobile phase A was 0.1% trifluoroacetic acid, B was the A phase with 80% acetonitrile added therein, the detection wavelength was 280 nm, 60% A and 40% B were balanced for 3 min, and the sample amount was 2 to 5 μL. Elution was performed with linear gradient for 8 min with 40% to 53% of the B phase and 60% to 47% of the A phase. Peak area was calculated using the normalization method. A standard sample was determined with the same method. The peptide concentration in the sample was calculated by comparison with the standard sample, and compared with the determination result at day 0, to calculate the retention of the peptide content in the sample. A higher retention of the peptide content indicated better chemical stability.
The HPLC detection method was performed according to Example 1.
The formulation method and HPLC detection method of the pharmaceutical compositions were performed according to Example 5.

[2] = Thioflavine T fluorescence value (gelatination, physical stability); assay type: physicochemical; details: 35 days
Protocol: A monitoring method for physical stability of the pH value was the fluorescence value, that is, thioflavine T was added into the sample at a final concentration of 5 μmol/L, then the fluorescence absorption value was determined (at an excitation wavelength of 435 nm, and an emission wavelength of 485 nm). The higher the absorption value is, the severer the gelatination phenomena of the sample is, and the poorer the physical stability is.

[3] = Long-term stability of GLP-1 formulations by HPLC; assay type: physicochemical
Protocol: The GLP-1 purity was determined by comparing the GLP-1 peak area with the total peak area.

[4] = WO00/37098, cited from earlier work

In the case of Glucagon-like peptide 1 [GLP-1], the “Results of HPLC analysis, retention of the peptide content” value (“Results of HPLC analysis” below) ([1]; pH 3.0, NaCl 0 mg/mL, 35° C., 8 days) is reported as 95.46%, the “Results of HPLC analysis” value ([1]; pH 3.0, NaCl 0 mg/mL, 45° C., 8 days) is reported as 87.19% and the “Results of HPLC analysis” value ([1]; pH 3.0, NaCl 1.17 mg/mL, 35° C., 8 days) is reported as 93.69%. The “Results of HPLC analysis” value ([1]; pH 3.0, NaCl 1.17 mg/mL, 45° C., 8 days) was 87.93%, the “Results of HPLC analysis” value ([1]; pH 3.0, NaCl 8.77 mg/mL, 35° C., 8 days) was 95.03% and the “Results of HPLC analysis” value ([1]; pH 3.0, NaCl 8.77 mg/mL, 45° C., 8 days) was 87.86%. The “Results of HPLC analysis” value ([1]; pH 3.0, NaCl 29.22 mg/mL, 35° C., 8 days) was 96.42%, the “Results of HPLC analysis” value ([1]; pH 3.0, NaCl 29.22 mg/mL, 45° C., 8 days) was 91.16% and the “Results of HPLC analysis” value ([1]; pH 3.5, NaCl 0 mg/mL, 35° C., 8 days) was 94.73%. For the same substance, the “Results of HPLC analysis” value ([1]; pH 3.5, NaCl 0 mg/mL, 45° C., 8 days) was 88.66%, the “Results of HPLC analysis” value ([1]; pH 3.5, NaCl 1.17 mg/mL, 35° C., 8 days) was 96.92% and the “Results of HPLC analysis” value ([1]; pH 3.5, NaCl 1.17 mg/mL, 45° C., 8 days) was 92.54%. For the same substance, the “Results of HPLC analysis” value ([1]; pH 3.5, NaCl 8.77 mg/mL, 35° C., 8 days) was 98.06%, the “Results of HPLC analysis” value ([1]; pH 3.5, NaCl 8.77 mg/mL, 45° C., 8 days) was 92.90% and the “Results of HPLC analysis” value ([1]; pH 3.6, NaCl below 20 mmol/L, 25° C., 30 days) was 93.04%. The “Results of HPLC analysis” value ([1]; pH 3.6, NaCl below 20 mmol/L, 35° C., 30 days) was 86.25%, the “Results of HPLC analysis” value ([1]; pH 3.7, NaCl below 20 mmol/L, 25° C., 30 days) was 95.15% and the “Results of HPLC analysis” value ([1]; pH 3.7, NaCl below 20 mmol/L, 35° C., 30 days) was 86.11%. For the same substance, the “Results of HPLC analysis” value ([1]; pH 3.8, NaCl below 20 mmol/L, 25° C., 30 days) was 97.10%, the “Results of HPLC analysis” value ([1]; pH 3.8, NaCl below 20 mmol/L, 35° C., 30 days) was 89.48% and the “Results of HPLC analysis” value ([1]; pH 3.9, NaCl below 20 mmol/L, 25° C., 30 days) was 98.08%. For the same substance, the “Results of HPLC analysis” value ([1]; pH 3.9, NaCl below 20 mmol/L, 35° C., 30 days) was 90.36%, the “Results of HPLC analysis” value ([1]; pH 4.0, NaCl 0 mg/mL, 35° C., 8 days) was 96.07% and the “Results of HPLC analysis” value ([1]; pH 4.0, NaCl 0 mg/mL, 45° C., 8 days) was 92.77%. For the same substance, the “Results of HPLC analysis” value ([1]; pH 4.0, NaCl 1.17 mg/mL, 35° C., 8 days) was 97.43%, the “Results of HPLC analysis” value ([1]; pH 4.0, NaCl 1.17 mg/mL, 45° C., 8 days) was 93.76% and the “Results of HPLC analysis” value ([1]; pH 4.0, NaCl 8.77 mg/mL, 35° C., 8 days) was 98.73%. The “Results of HPLC analysis” value ([1]; pH 4.0, NaCl 8.77 mg/mL, 45° C., 8 days) was “Turbid”, the “Results of HPLC analysis” value ([1]; pH 4.0, NaCl below 20 mmol/L, 25° C., 30 days) was 97.85% and the “Results of HPLC analysis” value ([1]; pH 4.0, NaCl below 20 mmol/L, 35° C., 30 days) was 91.80%. The “Results of HPLC analysis” value ([1]; pH 4.1, NaCl below 20 mmol/L, 25° C., 30 days) was 98.90%, the “Results of HPLC analysis” value ([1]; pH 4.1, NaCl below 20 mmol/L, 35° C., 30 days) was 91.35% and the “Results of HPLC analysis” value ([1]; pH 4.2, NaCl below 20 mmol/L, 25° C., 30 days) was 98.24%. For the same substance, the “Results of HPLC analysis” value ([1]; pH 4.2, NaCl below 20 mmol/L, 35° C., 30 days) was 93.96%, the “Results of HPLC analysis” value ([1]; pH 4.5, NaCl 0 mg/mL, 35° C., 8 days) was 97.23% and the “Results of HPLC analysis” value ([1]; pH 4.5, NaCl 0 mg/mL, 45° C., 8 days) was 92.45%. The “Results of HPLC analysis” value ([1]; pH 4.5, NaCl 1.17 mg/mL, 35° C., 8 days) was 95.29%, the “Results of HPLC analysis” value ([1]; pH 4.5, NaCl 1.17 mg/mL, 45° C., 8 days) was “Turbid” and the “Results of HPLC analysis” value ([1]; pH 4.5, NaCl 8.77 mg/mL, 35° C., 8 days) was “Turbid”. The “Results of HPLC analysis” value ([1]; pH 4.5, NaCl 8.77 mg/mL, 45° C., 8 days) was “Turbid”, the “Results of HPLC analysis” value ([1]; pH 7.0, NaCl 0 mg/mL, 35° C., 8 days) was 94.30% and the “Results of HPLC analysis” value ([1]; pH 7.0, NaCl 0 mg/mL, 45° C., 8 days) was 88.83%. For the same substance, the “Results of HPLC analysis” value ([1]; pH 7.0, NaCl 1.17 mg/mL, 35° C., 8 days) was 93.35%, the “Results of HPLC analysis” value ([1]; pH 7.0, NaCl 1.17 mg/mL, 45° C., 8 days) was 90.43% and the “Results of HPLC analysis” value ([1]; pH 7.0, NaCl 8.77 mg/mL, 35° C., 8 days) was 94.34%. The “Results of HPLC analysis” value ([1]; pH 7.0, NaCl 8.77 mg/mL, 45° C., 8 days) was 92.79%, the “Results of HPLC analysis” value ([1]; pH 7.0, NaCl 29.22 mg/mL, 35° C., 8 days) was 95.83% and the “Results of HPLC analysis” value ([1]; pH 7.0, NaCl 29.22 mg/mL, 45° C., 8 days) was 95.37%. For the same substance, the chemical stability ([1]; pH 7.0 to 7.5) was “poor”, the “Results of HPLC analysis” value ([1]; pH 7.5, NaCl 0 mg/mL, 35° C., 8 days) was 90.89% and the “Results of HPLC analysis” value ([1]; pH 7.5, NaCl 1.17 mg/mL, 35° C., 8 days) was 91.88%. The “Results of HPLC analysis” value ([1]; pH 7.5, NaCl 1.17 mg/mL, 45° C., 8 days) was 85.88%, the “Results of HPLC analysis” value ([1]; pH 7.5, NaCl 8.77 mg/mL, 35° C., 8 days) was 92.15% and the “Results of HPLC analysis” value ([1]; pH 7.5, NaCl 8.77 mg/mL, 45° C., 8 days) was 87.48%. The “Results of HPLC analysis” value ([1]; pH 7.5, NaCl 29.22 mg/mL, 35° C., 8 days) was 93.74%, the “Results of HPLC analysis” value ([1]; pH 7.5, NaCl 29.22 mg/mL, 45° C., 8 days) was 88.04% and the chemical instability ([1]; pH value lower than about 3.5) was “acid hydrolysis”. For the same substance, the Fluorescence value ([2]; pH 3.6, NaCl below 20 mmol/L, 35° C.) was 9.95, the Fluorescence value ([2]; pH 3.7, NaCl below 20 mmol/L, 25° C.) was 9.11 and the Fluorescence value ([2]; pH 3.7, NaCl below 20 mmol/L, 35° C.) was 14.55. The Fluorescence value ([2]; pH 3.8, NaCl below 20 mmol/L, 25° C.) was 11.01, the Fluorescence value ([2]; pH 3.8, NaCl below 20 mmol/L, 35° C.) was 31.58 and the Fluorescence value ([2]; pH 3.9, NaCl below 20 mmol/L, 25° C.) was 26.46. The Fluorescence value ([2]; pH 3.9, NaCl below 20 mmol/L, 35° C.) was 78.27, the Fluorescence value ([2]; pH 4.0, NaCl below 20 mmol/L, 25° C.) was 59.32 and the Fluorescence value ([2]; pH 4.0, NaCl below 20 mmol/L, 35° C.) was 113.18. The Fluorescence value ([2]; pH 4.1, NaCl below 20 mmol/L, 25° C.) was 139.48, the Fluorescence value ([2]; pH 4.1, NaCl below 20 mmol/L, 35° C.) was 157.00 and the storage duration ([3]; 2 to 8° C., composition pH about 3.5 to 5.0) was ≥ 2 years. For the same substance, the storage duration ([3]; 4° C., GLP-1 concentration up to 2 mg/ml, preservative added) was 2 years, the physical stability ([4]; between pH 6.8 and 7.5) was “poor” and the chemical stability ([4]; pH value greater than 8.8) was “reduced”. For the same substance, the “appearance of the formulation” value ([4]; pH value less than 8.0 after the addition of a preservative) was “turbid”.
